Assay [1] addresses Cupriavidus metallidurans Betaproteobacteria proteasome homolog (Cm-BPH) (Cupriavidus metallidurans). Description: negative-stain electron microscopy; 0.1 mg/ml protein, 1% uranyl acetate, particles classified and averaged (EMAN2).
For assay [2] the target is unchanged. The assay can be described thus: crystal structure; Cm-BPH, space group P6, 2.1 Å, two monomers in the ASU; dodecamer called non-native, malonate molecules intercalated in the intersubunit clefts.
For assay [3] the target is unchanged. Description: SEC-SAXS; Shodex Kw-403 column, 20 °C, 20 mM HEPES-NaOH pH 8.0, 150 mM NaCl, 2 mM TCEP, 1% sucrose; Cm-BPH 8.25 mg/ml, Td-BPH 15 mg/ml; profiles fitted with dodecameric and tetradecameric crystal models (FoXS). For orientation: In gel filtration, larger molecules generally elute earlier.
Assay [4] shares this target. Description: AUC + SEC-MALS; sedimentation velocity: 0.5 mg/ml protein in buffer A, 20 °C, 40,000 rpm; SEC-coupled multiangle light scattering; self-assembly.
Assay [5] concerns the target Thiobacillus denitrificans Betaproteobacteria proteasome homolog (Td-BPH) (Thiobacillus denitrificans). Description: negative-stain electron microscopy; 0.1 mg/ml protein, 1% uranyl acetate, particles classified and averaged (EMAN2).
The target is the same in assay [6]. The assay can be described thus: crystal structure; Td-BPH apo: hexagonal form P6(1)22 (100 mM sodium acetate pH 4.8, 1.2 M sodium nitrate) and orthorhombic form P2(1)2(1)2(1) (100 mM HEPES-NaOH pH 7.0, 600 mM NaF), 2.3 Å.
The target is the same in assay [7]. The assay can be described thus: SEC-SAXS; Shodex Kw-403 column, 20 °C, 20 mM HEPES-NaOH pH 8.0, 150 mM NaCl, 2 mM TCEP, 1% sucrose; Cm-BPH 8.25 mg/ml, Td-BPH 15 mg/ml; profiles fitted with dodecameric and tetradecameric crystal models (FoXS).
Assay [8] shares this target. The assay can be described thus: AUC + SEC-MALS; sedimentation velocity: 0.5 mg/ml protein in buffer A, 20 °C, 40,000 rpm; SEC-coupled multiangle light scattering; self-assembly.

A word on the stoichiometry N: it is a count of units in the complex or per binding partner. On to “Cupriavidus metallidurans Betaproteobacteria proteasome homolog (Cm-BPH) (enzyme)”, for which the stoichiometry N (subunits per ring) in assay [1] was 7. Besides, the stoichiometry N in assay [2] was found to be 12 subunits; in assay [3] it was 14 subunits; in assay [4], 13.8 subunits.
For “Thiobacillus denitrificans Betaproteobacteria proteasome homolog (Td-BPH) (enzyme)”, in assay [5], the stoichiometry N (subunits per ring) stood at 7. The stoichiometry N in assay [6], in assay [7] and in assay [8] was 14 subunits throughout.

For the origin of these results see article PMC5777263.
